Measured values reported in the nanobody polyreactivity screen of Harvey et al. (2022).

Assay: yeast display, Sf9 membrane polyspecificity reagent, FACS + sequencing; frameworks hold sequencing errors
Summary of the method: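 Using colony PCR, genes from sorted yeast display clones were amplified, then sequenced on MiSeq at 2 × 250 and filtered by CDR length. The clones had been stained with 10% biotinylated, detergent-solubilized Sf9 membrane reagent for 1 hour at 4 °C and sorted by FACS into low and high (top ~1%) gates on anti-HA and streptavidin fluorescence. Polyreactivity labels come from the gate of origin.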

Row | Sequence | polyreactivity (PSR sort gate)
1 | QVQLVESGGGLVQAGGSLRLSCAASGFTFYIYAMGWYRPAPRNERELLAAITGSGGRTYYADSVKGRFTISRDYAKNTVYLQMNRLKPEETAVYYSNVLLQRVYGTEPSFDYWGQGTQVTVSS | high polyreactivity
2 | QVQLVESGGGLVQAGGSLRLSCAASGFTFYIYGMGWYRPAPGKERELVAAITWSGGRTYYADSVKGRFTISRDNAKNTVYLHMNSLKPEDTAVYYCAASYPGLSYHKYEYWGHGTQVTVSS | high polyreactivity
3 | QVQLVESGGGLVQAGGSLRLSCAASGFTFYKNTMGWYRQAPAKARELVAAISSSGSSTYYADSVKGRFTISRDYAKNTVYLQMNSLKPEDTAVYYCAAGRFAYHDDYWGQGTQVTVSS | high polyreactivity
4 | QVQLVESGGGLVQAGGSLRLSCAASGFTFYKNTMGWYRQAPGKERELVAAISGSGGRTYYADSVKGRFTISRDNAKNTVYLQMNSLKPEDTAVYYCNAAARYRWQYDYSLYEYGHWGQGTQVTVSS | high polyreactivity
5 | QVQLVESGGGLVQAGGSLRLSCAASGFTFYKYAMGWYRQAPGKEREFVAAISSSGDSTYYADSVKGRFTISRDNAKNTVYLQMNSLKPEDTAVYYCAARRRGTSTTWGQGTQVTVSS | high polyreactivity
6 | QVQLVESGGGLVQAGGSLRLSCAASGFTFYKYAMGWYRQAPGKERELVAGISSRGTRTYYADSVKGRFTISRDNAKNTVYLQMNSLKPEDTAVYDCAADSNTVNYDYWGQGTQVTVSS | high polyreactivity
7 | QVQLVESGGGLVQAGGSLRLSCAASGFTFYLYAMGWYRPAPGKERELVAAITYSAGSTYYADSVKGRFTISRDNEKNTVYLQMNSLKPEDTAVFSCAKRGHYRAWGGGGYWGQGTQVTVSS | low polyreactivity
8 | QVQLVESGGGLVQAGGSLRLSCAASGFTFYLYGMGGYRQAPGKERELVAAIRSGGSTNYADSVKGRFSISRDNAKNTVYLQMNSLKPEDTAVYYCATDIHSVHNNRDKPDYDYWGQGSQVTVSS | low polyreactivity
9 | QVQLVESGGGLVQAGGSLRLSCAASGFTFYLYTMGWYRQAPGKERQLVAAISGSGGSTYYADSVKGRFTISRDNAKITVYLQMNSLKPEDTAVYYCAASPVRVGKVIDRRDYWGQGTQVTVSS | high polyreactivity
10 | QVQLVESGGGLVQAGGSLRLSCAASGFTFYLYVMGWYRQAPGTEREFVAAITGSGTSTYYADSVKGRFTISRDNAKNTVYLQMNSLKPEDTAVYYCNAKRDRYFYTVKYDYWGQGTQVTVSS | low polyreactivity
11 | QVQLVESGGGLVQAGGSLRLSCAASGFTFYPNAMGWYRQAPGKERELVAAISRSGSSTYYADSVKGRFTISRDNAKNTVYLQMNSLKPEDTAVYYCNRYGRQYDFYYWGQGTQVTVSS | high polyreactivity
12 | QVQLVESGGGLVQAGGSLRLSCAASGFTFYPNTMGWYRQAPGKERELVAAISSSGGRTYYADSVKGRFTISRDNAKNTVYLQMNSLKPEDTAVYYCNAAKWLTSGGLDYWGLGTQVTVSS | high polyreactivity
13 | QVQLVESGGGLVQAGGSLRLSCAASGFTFYPYAMGWYRQAPGKERELVAAISNGDSTHYADSVKGRFTISRDNAKNTVYLQMNSLKPEDTAVYYCAAVRGYPSRITSYVYTYGYWGQGTQVTVSS | low polyreactivity
14 | QVQLVESGGGLVQAGGSLRLSCAASGFTFYPYAMGWYRQAPGTERELVAAIRGSGGSTHYADSVKGRFTISRDNAKNTVYLQMNSLKPEDTAVYYCAARIRGYRQYEYYYWGQGTQVTVSS | high polyreactivity
15 | QVQLVESGGGLVQAGGSLRLSCAASGFTFYRNAMGWYRHAPGTERELVAAISWSGDSTYYADSVKGRFTISRDNAKNTVYLQMNSLKPEDTAVYYCAKERYFYYPWVTTYTSNYWGQGTQVTVSS | low polyreactivity
16 | QVQLVESGGGLVQAGGSLRLSCAASGFTFYRNAMGWYRQAPGKERELVARIRGTGGRTYYADSVKGRFTISRDNAKNTVYLQMNSLKPEDTAVYYCNVGRGYSFANGDYWGQGTQVTVSS | high polyreactivity

Row | Sequence | polyreactivity (PSR sort gate)
17 | QVQLVESGGGLVQAGGSLRLSCAASGFTFYRNPMGWYRQAPGKERELVAAISARGVSTYYADSVKGRFTISRDNAKNTVYLQMNSLKPEDTAVYYFSAVNYIYTGGGTYYYWGQGTQVTVSS | high polyreactivity
18 | QVQLVESGGGLVQAGGSLRLSCAASGFTFYRYAMGWYRPAPGKERELVAAITRVGSTYYADSVKGRFTISRDNAKNTVYLQMNSLKPEDTAVYYCNARGTVPWYGYDYWGQGTQVTVSS | high polyreactivity
19 | QVQLVESGGGLVQAGGSLRLSCAASGFTFYRYAMGWYRQAPGKERELVAAINWSGVSTYYADSVKGRFTISRDNAKNTVYLQMNSLKPEDTAVYYCAADTYAGYNGNYWGQGTQVTVSS | high polyreactivity
20 | QVQLVESGGGLVQAGGSLRLSCAASGFTFYRYAMGWYRQAPGKERELVAAISSSGGTTYYADSVKGRFTISRDNAKNTVYLQMNSLKPEDTAVYYCAARGWPTWGWGYDYWGQGTQVTVSS | high polyreactivity
21 | QVQLVESGGGLVQAGGSLRLSCAASGFTFYRYAMGWYRQAPGKERELVAAISWRGTSTYYADSVKGRFTISRDNAKNTVYLQMNSLKPEDTAVYYCAAPRNFGPYTSPRQPLYNYWGQGTQVTVSS | high polyreactivity
22 | QVQLVESGGGLVQAGGSLRLSCAASGFTFYRYAMGWYRQAPGKERELVAAITNGGGTYYADSVKGRFTISRDNAKNTVYLQMNSLKPEDTAVYYCAAKSRLPTQGLGIYYWGQGTQVSVSS | high polyreactivity
23 | QVQLVESGGGLVQAGGSLRLSCAASGFTFYRYAMGWYRQAPGKERELVAAITRTGGSTYYADSVKGRFTISRDIAKNTVYLQMISLKPEDTAVYYCAARVHGTGTLKYPNYYWGQGTQVTVSS | high polyreactivity
24 | QVQLVESGGGLVQAGGSLRLSCAASGFTFYRYAMGWYRQAPGKERELVAAITSGGDTYYADSVKGRFTISRDNAKNTVYLQMNSLKPEDTAVYYCAAAPRYGYGLASDSIFDYWGQGTQVTVSS | high polyreactivity
25 | QVQLVESGGGLVQAGGSLRLSCAASGFTFYRYAMGWYRQAPGKERELVAAITWSGGSTYYADSVKGRFTISRDNAKNTVYFQMNSLKPEDTAVYYCAASRWIFQVNDYDYWGQGTQGTVSS | high polyreactivity
26 | QVQLVESGGGLVQAGGSLRLSCAASGFTFYRYAMGWYRQAPGKERELVAALSGSGGSTYYADSVKGPFTISRDNAKTTVYLQMNSLNPEDTAVYYCNTVWFYGAKYDYWGQGTQVTVSS | high polyreactivity
27 | QVQLVESGGGLVQAGGSLRLSCAASGFTFYRYAMGWYRQAPGKERELVARISWSGGSTYYADSVKGRFTISRDNAKNTVYLQMNSLKPEDTAVYYCNARRLFESWKYDYWGQGTQVTVSS | high polyreactivity
28 | QVQLVESGGGLVQAGGSLRLSCAASGFTFYRYGMGWYRQAPGKERELVAAINNDGTTNYADSVKGRFTISRDNAKNTVYLQMNSLKPEDTAVYYCAADYYRGRYSSRYDYWGQGTQVTVSS | low polyreactivity
29 | QVQLVESGGGLVQAGGSLRLSCAASGFTFYRYVMGWYRQAPGKERELVAAISWNGGRTYYADSVKGRFTISRDNAKNTVYLQMNSLKPEDTAVYYCAAVPGSRSYGGDYWGQGTQVTVSS | high polyreactivity
30 | QVQLVESGGGLVQAGGSLRLSCAASGFTFYRYVMGWYRQAPGTERELVAAITGGGRTYYADSVKGRFTISRDNAKNTVYLQMNSLKPEDTAVYYCNKAVPAWGLFDYWGQGTQVTVSS | low polyreactivity
31 | QVQLVESGGGLVQAGGSLRLSCAASGFTFYSYAMGWYRQAPGKERELFAAITQSGGSTYYADSVKGRFTISRDNAKNTVYLQMNSLKPEDTAVYYCAADIYNDYDYGYYYWGQGTQVTVSS | low polyreactivity
